Measured values taken from US20200147235A1 (AbbVie / Abbott, published 2020).
Residue numbers refer to the chain shown, from its start.

T1: Human CD98 ECD with C-terminal His-tag (human, UniProt P08195 105-529)
T1 construct: also called huCD98 ECD; recombinant human CD98 extracellular domain
T1 sequence: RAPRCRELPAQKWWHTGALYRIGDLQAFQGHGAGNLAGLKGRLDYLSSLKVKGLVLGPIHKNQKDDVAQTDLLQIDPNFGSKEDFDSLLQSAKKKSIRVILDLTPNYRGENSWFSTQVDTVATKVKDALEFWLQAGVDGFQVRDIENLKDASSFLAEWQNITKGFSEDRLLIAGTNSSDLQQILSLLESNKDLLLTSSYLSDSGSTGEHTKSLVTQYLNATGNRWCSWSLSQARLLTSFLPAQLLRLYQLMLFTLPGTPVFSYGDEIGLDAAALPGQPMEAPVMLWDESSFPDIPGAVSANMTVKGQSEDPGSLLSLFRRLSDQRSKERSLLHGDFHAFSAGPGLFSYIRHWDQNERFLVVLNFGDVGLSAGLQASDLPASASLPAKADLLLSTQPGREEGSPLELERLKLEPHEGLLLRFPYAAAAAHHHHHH

T2: Cynomolgus monkey CD98 ECD with C-terminal His-tag (cynomolgus monkey, UniProt P08195 105-529 (human entry))
T2 construct: also called cyCD98 ECD; recombinant cynomolgus monkey CD98 extracellular domain
T2 chain: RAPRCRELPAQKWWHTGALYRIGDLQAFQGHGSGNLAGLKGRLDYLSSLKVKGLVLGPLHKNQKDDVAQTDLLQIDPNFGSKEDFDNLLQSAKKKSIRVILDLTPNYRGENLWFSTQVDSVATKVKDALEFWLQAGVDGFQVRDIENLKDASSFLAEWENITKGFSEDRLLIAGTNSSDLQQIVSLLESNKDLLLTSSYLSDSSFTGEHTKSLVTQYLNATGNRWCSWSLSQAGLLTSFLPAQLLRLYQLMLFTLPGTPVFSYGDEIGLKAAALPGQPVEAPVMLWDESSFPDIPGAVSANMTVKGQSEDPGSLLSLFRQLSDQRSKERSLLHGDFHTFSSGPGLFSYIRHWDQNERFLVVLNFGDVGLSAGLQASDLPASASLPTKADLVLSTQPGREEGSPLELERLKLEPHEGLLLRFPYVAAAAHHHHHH

T3: Cynomolgus monkey CD98 ECD with C-terminal His-tag (cynomolgus monkey, UniProt P08195 105-529 (human entry))
T3 construct: The entry includes the linker and the polyhistidine tag; also called cyCD98 ECD
T3 chain: T2 chain

T4: Human CD98 ECD with C-terminal His-tag (human, UniProt P08195 105-529)
T4 construct: The entry includes the linker and the polyhistidine tag; also called huCD98 ECD
T4 sequence: T1 sequence

T5: Human CD98 expressed on stably transfected CHO-K1 cells (human)
T5 construct: also called huCD98; CD98 heavy chain
T5 chain: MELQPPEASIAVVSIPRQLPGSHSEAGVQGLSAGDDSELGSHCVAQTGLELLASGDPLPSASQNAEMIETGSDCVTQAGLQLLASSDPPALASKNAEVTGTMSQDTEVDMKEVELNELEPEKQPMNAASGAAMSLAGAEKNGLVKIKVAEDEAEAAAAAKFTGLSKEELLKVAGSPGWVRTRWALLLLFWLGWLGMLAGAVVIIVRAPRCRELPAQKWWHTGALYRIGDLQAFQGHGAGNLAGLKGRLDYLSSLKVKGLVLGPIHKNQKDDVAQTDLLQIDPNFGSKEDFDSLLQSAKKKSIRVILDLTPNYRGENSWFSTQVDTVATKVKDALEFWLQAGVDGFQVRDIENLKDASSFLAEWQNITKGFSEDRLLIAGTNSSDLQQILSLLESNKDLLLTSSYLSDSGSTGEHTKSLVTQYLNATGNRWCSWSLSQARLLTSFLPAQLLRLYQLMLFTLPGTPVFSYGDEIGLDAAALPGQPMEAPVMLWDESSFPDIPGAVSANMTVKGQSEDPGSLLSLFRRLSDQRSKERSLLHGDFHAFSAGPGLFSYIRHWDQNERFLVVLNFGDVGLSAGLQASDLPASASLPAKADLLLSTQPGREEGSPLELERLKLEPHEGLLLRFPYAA

B1: Recombinant anti-CD98 chimeric antibody chAb1 (antibody, human IgG1, V domains shown)
VH: EVKLVESGGGLVQPGGSLRLSCATSGFTFTDYYMSWVRQPPGKALEWLGFIRNPANVYTTEYSASVKGRFTISRDNSQSILYLQMNTLRAEDSATYYCARASYGNSEGWFAYWGQGTLVTVSA
VL: DIVMSQSPSSLAVSVGEKVTMSCKSSQNLLYNNNQKNYLAWYQQKPGQSPKLLIYWASTRESGVPDRFTGSGSGTDFTLTISSVKAEDLAVYYCQQYYSYPRTFGGGTKLEIK
B2: Recombinant anti-CD98 chimeric antibody chAb4 (antibody, human IgG1, V domains shown)
VH: B1 VH with A23T, P54K, N56T, V57I
VL: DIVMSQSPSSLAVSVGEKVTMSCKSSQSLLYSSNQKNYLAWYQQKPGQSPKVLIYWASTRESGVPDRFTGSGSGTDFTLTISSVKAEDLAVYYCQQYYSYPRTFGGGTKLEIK
B3: Recombinant anti-CD98 chimeric antibody chAb3 (antibody, human IgG1, V domains shown)
VH: EVKLVESGGGLVQPGNSLRLSCATSGFTFIDYYMSWVRQSPGKALEWLGFIRNKANGYTTEYSASVKGRFTISRDNSQSILYLQMDTLRAEDSATYYCTRDRPAWFVYWGQGTLVTVSA
VL: B1 VL with N28S, N32S, N33S, I81F, K85R, R102Y
B4: Recombinant anti-CD98 chimeric antibody chAb5 (antibody, human IgG1, V domains shown)
VH: B1 VH with S35T, P54K, V57G, Q78L, G104V
VL: B1 VL with N28S, N32S, N33S, P46L, Q96H
B5: Recombinant anti-CD98 chimeric antibody chAb2 (antibody, human IgG1, V domains shown)
VH: B1 VH with T28N, P54K, V57G, N76D
VL: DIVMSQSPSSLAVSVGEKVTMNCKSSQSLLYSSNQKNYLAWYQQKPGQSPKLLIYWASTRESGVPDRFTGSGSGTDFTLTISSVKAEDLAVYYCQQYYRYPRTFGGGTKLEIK
B6: Recombinant anti-CD98 chimeric antibody chAb6 (antibody, human IgG1, V domains shown)
VH: QVQLKESGPGLAQPSQTLSLTCTVSGFSLSTYGVIWLRQPPGKGLEWMGVIWTNGNTNYNSTLKSRLSISRDTSESQVYLQMNSLQTEDTATYYCARHYYDGAYYYGYFDYWGQGVMVTVSS
VL: DIVMTQTPSSQAVSAGEKVTMSCKSSQSLLYSENKKNYLAWYQQKPGQSPKLLIYWASTRESGVPDRFIGSGSGTDFTLTISSVQAEDLAVYYCQQYYYFPYTFGAGTKLELK
B7: Recombinant anti-CD98 chimeric antibody chAb13 (antibody, human IgG1, V domains shown)
VH: B6 VH with A12V, T31S, L37V, V50I, T53A, T62A, E75K, Q81K, A103T, Y104H
VL: B6 VL with I2T, N37K, Y99N
notes: also called chAbl 3
B8: Recombinant anti-CD98 chimeric antibody chAb9 (antibody, human IgG1, V domains shown)
VH: B6 VH with A12V, T23A, T31N, L37V, G49A, E75K, Q81K, A103T
VL: B6 VL with S32T, I69M, T103M
B9: huAb15v5 (antibody, V domains shown)
VH: EVQLVESGGGVVQPGRSLRLSCAASGFTFSDYTMAWVRQAPGKGLEWVATIIYTGRGTYYRDAVKGRFTISRDNSKSTLYLQMNSLRAEDTAVYYCARQSDDTYYYWGYFDYWGQGTMVTVSS
VL: DIVMTQSPDSLAVSLGERATINCKSSQSLLFSGNQKNYLAWYQQKPGQSPKLLIYWASTRQSGVPDRFSGSGSGTDFTLTIRSLQAEDVAIYYCQQYYSSPYTFGQGTKLEIK
notes: Humanized, further engineered clone of chAb15, converted to IgG and expressed as a full-length antibody
B10: huAb15v7 (antibody, V domains shown)
VH: B9 VH with T54D, G55A
VL: B9 VL with S99G
notes: as for B9
B11: huAb15v6 (antibody, V domains shown)
VH: B9 VH with T54D, G55A
VL: B9 VL
notes: as for B9

These binders were tested against T1, Human CD98 ECD with C-terminal His-tag (assay: SPR Biacore, anti-Fc capture of mAb, CD98 ECD analyte).
Description: (§1) The binding kinetics of these purified mouse and rat monoclonal anti-CD98 antibodies for purified recombinant CD98 protein (extracellular domain. ECD) were determined by surface plasmon resonance-based measurements made on Biacore T100/T200 instruments (GE Healthcare, Piscataway, N.J.) at 25° C. using an anti-Fc capture assay approach. Binding kinetic measurements were made in the assay buffer HBS-EP+: 10 mM Hepes, pH 7.4, 150 mM NaCl, 3 mM EDTA, 0.05% Tween 20). For example, approximately 8000 RU of anti-Fc (species specific) polyclonal antibody (Thermo Fisher Scientific Inc. Rockford, Ill.) diluted in 10 mM sodium acetate (pH 4.5) was directly immobilized across a CM5 research grade biosensor chip using a standard amine coupling kit according to manufacturer's instructions and procedures at 25 μg/ml. Unreacted moieties on the biosensor surface were blocked with ethanolamine. The test antibody to be captured as a ligand was diluted in running buffer to ˜0.5 μg/mL and injected over anti-Fc surface at a flow rate of 10 μL/min, CD98 binding and dissociation were observed under a continuous flow rate of 80 μL/min. Human and cynomolgus monkey CD98 ECDs, both with a C-terminal His-tag, are used for this study (Table 3). After each cycle the anti-Fc capture surface was regenerated using 10 mM Glycine-HCl, pH 1.5. During the assay, all measurements were referenced against the capture surface alone (i.e., with no captured test antibody) and buffer-only injections (no antigen) were used for double referencing. For kinetic analysis, rate equations derived from the 1:1 Langmuir binding model were fitted simultaneously, globally and with mass transfer term included to multiple referenced antigen binding curves using Biacore T100T200 Evaluation software.
(§2) Briefly, binding kinetics of anti-CD98 chimera mAbs for human and cynomolgus CD98 ECDs were determined by surface plasmon resonance-based measurements as described in Example 4.

| Kd [nM] | koff [s⁻¹] | kon [M⁻¹ s⁻¹] | Binder |
| --- | --- | --- | --- |
| 0.21 | 1.5e-05 | 68000 | B1 |
| 2.8 | 7.8e-05 | 28000 | B2 |
| 21 | 0.0034 | 160000 | B3 |
| 7.5 | 0.0003 | 40000 | B4 |
| 1.6 | 9.6e-05 | 59000 | B5 |
| 1.3 | 0.00014 | 110000 | B6 |
| 1.2 | 0.00016 | 130000 | B7 |
| 3.3 | 0.00024 | 73000 | B8 |

Target: T2, Cynomolgus monkey CD98 ECD with …
Test: as above
Description: as §1, §2

| Kd [nM] | koff [s⁻¹] | kon [M⁻¹ s⁻¹] | Binder |
| --- | --- | --- | --- |
| 0.8 | 2.2e-05 | 28000 | B1 |
| 8.3 | 7.3e-05 | 8800 | B2 |
| 40 | 0.0016 | 39000 | B3 |
| 25 | 0.00044 | 18000 | B4 |
| 58 | 0.0011 | 19000 | B5 |
| 7.9 | 0.00037 | 47000 | B6 |
| 7.1 | 0.00044 | 62000 | B7 |
| 19 | 0.00063 | 33000 | B8 |

Target: T3, Cynomolgus monkey CD98 ECD with …
Test: SPR (Biacore), antibody captured on anti-Fc surface, CD98 ECD in solution
Description: as §1
(§3) The binding kinetics of the recombinant anti-CD98 chimeric antibodies for purified recombinant CD98 protein (extracellular domain, ECD) were determined by surface plasmon resonance-based measurements, as described in the Example 4.

| Kd [nM] | koff [s⁻¹] | kon [M⁻¹ s⁻¹] | Binder |
| --- | --- | --- | --- |
| 11 | 0.00018 | 17000 | B9 |
| 30 | 0.00043 | 14000 | B10 |
| 34 | 0.00049 | 14000 | B11 |

The binders below were run against T4, Human CD98 ECD with C-terminal His-tag in the same assay as above.
Description: as §1, §3

| Kd [nM] | koff [s⁻¹] | kon [M⁻¹ s⁻¹] | Binder |
| --- | --- | --- | --- |
| 3.1 | 0.00013 | 41000 | B9 |
| 5.9 | 0.00021 | 35000 | B10 |
| 6.7 | 0.00026 | 38000 | B11 |

These binders were tested against T6, Cynomolgus monkey CD98 expressed on stably transfected 3T12 cells (cynomolgus monkey) (assay: flow cytometry, 3T12 cells expressing cynomolgus CD98).
T6 construct: whole, on cells; also called cyCD98
Description: (§4) Briefly, binding kinetics of anti-CD98 chimera mAbs for human and cynomolgus CD98 ECDs were determined by surface plasmon resonance-based measurements as described in Example 4. Table 10 reported the association and dissociation rate constants for CD98 binding, kₐ (M⁻¹s⁻¹) and kd (s⁻¹), and the equilibrium dissociation constant KD (M) of the interaction between antibodies and the target antigen. Binding of anti-CD98 chimera mAbs for CD98 on cell surface was evaluated by flow cytometry against CHO-K1 cell line stably transfected to express human CD98 and 3T12 cell line stably transfected to express cynomolgus monkey CD98.

| EC50 [nM] | Binder |
| --- | --- |
| 9.86 | B1 |
| 17.2 | B2 |
| 9.87 | B3 |
| 24.2 | B4 |
| 12.7 | B5 |
| 5.99 | B6 |
| 2.98 | B7 |
| 11.1 | B8 |

Target: T5, Human CD98 expressed on stably …
Test: flow cytometry, CHO-K1 cells expressing human CD98
Description: as §4

| EC50 [nM] | Binder |
| --- | --- |
| 1.67 | B1 |
| 5.41 | B2 |
| 2.02 | B3 |
| 3.25 | B4 |
| 3.84 | B5 |
| 2.08 | B6 |
| 3.24 | B7 |
| 8.55 | B8 |
